These results are taken from publication PMC8154272, “Discovery of a New, Recurrent Enzyme in Bacterial Phosphonate Degradation: (R)-1-Hydroxy-2-aminoethylphosphonate Ammonia-lyase” (Biochemistry, 2021).

By Km is commonly meant the concentration of substrate that gives half-maximal velocity.

The subject of one data set is NC[C@H](O)P(=O)(O)O. Description: purified protein. The note with it: TEA-HCl pH 8.0, 25 °C, 5 mM MgCl2, 5 μM PLP, 0.07% BSA, 1,2-elimination.
A further data set addresses PhnX (Vibrio splendidus, UniProt A0ABV4LR11). The experiment in a line: 1H NMR, disappearance of PAA. The settings on record: PAA generated in situ by PhnW or PbfA; 50 mM potassium phosphate pH 8.0, 100 mM KCl, 5 mM MgCl2, 25 °C. The format is biochemical.

As to PbfA (Vibrio splendidus 12B01), in the data set on NC[C@H](O)P(=O)(O)O, the Km was determined as 430 ± 60 µM and the kcat turned out to be 5.3 ± 0.3 s^–1.

`O=CCP(=O)(O)O` [PAA]: the “1H NMR, disappearance of PAA” value on PhnX is given as “Addition of PhnX (blue) led to disappearance of PAA”.
